Results published in US20080015137A1.

Target: Karyopherin beta2 (Kapβ2), full length, wild type (human) (UniProt Q92973)
Assay: ITC; MBP-M9NLS(257-305) mutant titrated into full length Kapβ2

Chain of Karyopherin beta2 (Kapβ2), full length, wild type (human) (Q92973 9-898 limits assumed): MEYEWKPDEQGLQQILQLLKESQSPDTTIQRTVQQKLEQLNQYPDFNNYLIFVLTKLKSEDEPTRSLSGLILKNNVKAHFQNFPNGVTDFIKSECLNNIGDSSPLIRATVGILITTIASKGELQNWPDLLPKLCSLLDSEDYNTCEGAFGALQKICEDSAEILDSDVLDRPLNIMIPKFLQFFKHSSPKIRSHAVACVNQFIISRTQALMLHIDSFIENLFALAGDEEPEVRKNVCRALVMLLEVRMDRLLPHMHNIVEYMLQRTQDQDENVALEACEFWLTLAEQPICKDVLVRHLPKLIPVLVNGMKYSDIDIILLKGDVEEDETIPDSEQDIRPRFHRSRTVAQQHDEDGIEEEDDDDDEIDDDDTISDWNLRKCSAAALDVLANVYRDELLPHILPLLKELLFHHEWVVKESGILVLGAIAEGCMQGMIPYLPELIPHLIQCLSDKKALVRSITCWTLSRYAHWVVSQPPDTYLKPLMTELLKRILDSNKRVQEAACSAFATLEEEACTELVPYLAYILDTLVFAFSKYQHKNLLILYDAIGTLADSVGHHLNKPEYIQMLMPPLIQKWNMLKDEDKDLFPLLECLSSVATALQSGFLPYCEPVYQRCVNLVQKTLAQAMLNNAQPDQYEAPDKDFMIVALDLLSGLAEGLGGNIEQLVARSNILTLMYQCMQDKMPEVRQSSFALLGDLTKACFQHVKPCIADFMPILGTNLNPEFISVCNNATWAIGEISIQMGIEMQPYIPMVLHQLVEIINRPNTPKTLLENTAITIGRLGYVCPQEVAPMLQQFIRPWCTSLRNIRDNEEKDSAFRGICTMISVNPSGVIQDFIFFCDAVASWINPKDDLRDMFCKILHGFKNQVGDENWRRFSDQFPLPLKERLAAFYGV

Substance | Kd [nM]
MBP-M9NLS(257-305) M276A (from UniProt P09651 257-305) | 83
MBP-M9NLS(257-305) P288A/Y289A (from UniProt P09651 257-305) | 136
MBP-M9NLS(257-305) R284A/P288A/Y289A (from UniProt P09651 257-305) | 461
MBP-M9NLS(257-305) G274A (from UniProt P09651 257-305) | 746
MBP-M9NLS(257-305) P275A (from UniProt P09651 257-305) | 74
MBP-M9NLS(257-305) F281A (from UniProt P09651 257-305) | 56
MBP-M9NLS(257-305) R284A (from UniProt P09651 257-305) | 92
MBP-M9NLS(257-305) Y289A (from UniProt P09651 257-305) | 133

Results, then the substance that gave them:

Kd [nM] | Substance
158 | MBP-M9NLS(257-305) P288A (from UniProt P09651 257-305)
61 | MBP-M9NLS(257-305) F273A (from UniProt P09651 257-305)
5900 | MBP-M9NLS(257-305) G274A/P288A/Y289A (from UniProt P09651 257-305)
